Experimental data from the supplement of paper PMC9112550, “Optimization of the antimicrobial peptide Bac7 by deep mutational scanning” (BMC Biology, 2022).

Test system: Escherichia coli TOP10
Assay: shrunken log2 fold change of peptide-encoding DNA abundance (4.5 h post-induction vs induction); higher = less antimicrobial activity (less host growth inhibition)
Details: time post-induction: 4.5 h; library: site-saturation at positions 5, 18, 19, 20
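Also: peptides expressed intracellularly from a pBAD plasmid library in pooled LB shake-flask culture, induced with 0.3% L-arabinose, DNA abundance read by NGS, three biological replicates, DESeq2 with apeglm shrinkage.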

With RRIRKRPPRLPRPRPRPQEIPRP the “shrunken log2 fold change” value was 0.0636.

With RRIRLRPPRLPRPRPRPGVLPRP the “shrunken log2 fold change” value was 0.204.

With RRIRWRPPRLPRPRPRPCKVPRP the “shrunken log2 fold change” value was -0.0816.

RRIRNRPPRLPRPRPRPPVDPRP was tested, and the “shrunken log2 fold change” value was 0.36.

RRIRGRPPRLPRPRPRPPTPPRP was tested, and the “shrunken log2 fold change” value was 1.22.

For RRIRWRPPRLPRPRPRPVQLPRP, the “shrunken log2 fold change” value was 0.034.

With RRIRARPPRLPRPRPRPGFAPRP the “shrunken log2 fold change” value was 0.57.

With RRIRDRPPRLPRPRPRPKCSPRP the “shrunken log2 fold change” value was 0.243.

RRIRERPPRLPRPRPRPYMLPRP was tested, and the “shrunken log2 fold change” value was -1.42.

With RRIRKRPPRLPRPRPRPRFMPRP the “shrunken log2 fold change” value was 0.102.

In the case of RRIRTRPPRLPRPRPRPGNWPRP, the “shrunken log2 fold change” value is reported as 0.275.

RRIRTRPPRLPRPRPRPSAAPRP was tested, and the “shrunken log2 fold change” value was 0.186.

For RRIRPRPPRLPRPRPRPPPIPRP, the “shrunken log2 fold change” value was 0.374.

RRIRVRPPRLPRPRPRPHKHPRP was tested, and the “shrunken log2 fold change” value was -0.483.

With RRIRHRPPRLPRPRPRPFAHPRP the “shrunken log2 fold change” value was 0.186.

With RRIRSRPPRLPRPRPRPFSCPRP the “shrunken log2 fold change” value was -0.0153.

In the case of RRIRNRPPRLPRPRPRPAKGPRP, the “shrunken log2 fold change” value is reported as -0.051.

For RRIRYRPPRLPRPRPRPMSWPRP, the “shrunken log2 fold change” value was -0.0422.

RRIRNRPPRLPRPRPRPKSNPRP was tested, and the “shrunken log2 fold change” value was -0.294.

In the case of RRIRRRPPRLPRPRPRPMMKPRP, the “shrunken log2 fold change” value is reported as 0.324.

With RRIRERPPRLPRPRPRPEFNPRP the “shrunken log2 fold change” value was -0.633.

With RRIRDRPPRLPRPRPRPRREPRP the “shrunken log2 fold change” value was 0.281.

For RRIRCRPPRLPRPRPRPFMIPRP, the “shrunken log2 fold change” value was -0.259.

For RRIRKRPPRLPRPRPRPHPRPRP, the “shrunken log2 fold change” value was 1.27.

For RRIRFRPPRLPRPRPRPTEEPRP, the “shrunken log2 fold change” value was 0.0249.

For RRIRLRPPRLPRPRPRPHMVPRP, the “shrunken log2 fold change” value was -0.336.

With RRIRTRPPRLPRPRPRPPMFPRP the “shrunken log2 fold change” value was -0.097.

For RRIRMRPPRLPRPRPRPCCYPRP, the “shrunken log2 fold change” value was -0.427.

With RRIRMRPPRLPRPRPRPVGGPRP the “shrunken log2 fold change” value was 0.961.

For RRIRWRPPRLPRPRPRPLYEPRP, the “shrunken log2 fold change” value was -0.255.

In the case of RRIRERPPRLPRPRPRPQKTPRP, the “shrunken log2 fold change” value is reported as -0.0465.

In the case of RRIRNRPPRLPRPRPRPWTHPRP, the “shrunken log2 fold change” value is reported as -0.0174.

With RRIRPRPPRLPRPRPRPGWWPRP the “shrunken log2 fold change” value was 0.356.

In the case of RRIRARPPRLPRPRPRPTKVPRP, the “shrunken log2 fold change” value is reported as 0.339.

In the case of RRIRKRPPRLPRPRPRPYFSPRP, the “shrunken log2 fold change” value is reported as -0.178.

In the case of RRIRQRPPRLPRPRPRPREDPRP, the “shrunken log2 fold change” value is reported as 0.242.

RRIRFRPPRLPRPRPRPRLSPRP was tested, and the “shrunken log2 fold change” value was -0.194.

For RRIRTRPPRLPRPRPRPWWYPRP, the “shrunken log2 fold change” value was -0.308.

RRIRARPPRLPRPRPRPGGQPRP was tested, and the “shrunken log2 fold change” value was 0.262.

With RRIRERPPRLPRPRPRPEACPRP the “shrunken log2 fold change” value was -0.0166.

In the case of RRIRSRPPRLPRPRPRPENMPRP, the “shrunken log2 fold change” value is reported as -0.459.

With RRIRLRPPRLPRPRPRPWGQPRP the “shrunken log2 fold change” value was -0.0472.

RRIRPRPPRLPRPRPRPIGDPRP was tested, and the “shrunken log2 fold change” value was -0.0205.

With RRIRTRPPRLPRPRPRPVTRPRP the “shrunken log2 fold change” value was 0.229.

With RRIRDRPPRLPRPRPRPHMHPRP the “shrunken log2 fold change” value was -0.0478.

RRIRDRPPRLPRPRPRPAMSPRP was tested, and the “shrunken log2 fold change” value was 0.184.

With RRIRERPPRLPRPRPRPDPFPRP the “shrunken log2 fold change” value was -0.102.

In the case of RRIRMRPPRLPRPRPRPDWTPRP, the “shrunken log2 fold change” value is reported as 0.0113.

In the case of RRIRMRPPRLPRPRPRPRQCPRP, the “shrunken log2 fold change” value is reported as 0.594.

With RRIRHRPPRLPRPRPRPMHPPRP the “shrunken log2 fold change” value was -0.193.

For RRIRLRPPRLPRPRPRPDALPRP, the “shrunken log2 fold change” value was -0.354.

With RRIRVRPPRLPRPRPRPGVHPRP the “shrunken log2 fold change” value was 0.107.

With RRIRLRPPRLPRPRPRPKMKPRP the “shrunken log2 fold change” value was -0.476.

RRIRARPPRLPRPRPRPCMAPRP was tested, and the “shrunken log2 fold change” value was 0.104.

RRIRMRPPRLPRPRPRPAIRPRP was tested, and the “shrunken log2 fold change” value was -0.0476.

RRIRYRPPRLPRPRPRPSAHPRP was tested, and the “shrunken log2 fold change” value was -0.117.

For RRIRLRPPRLPRPRPRPFGYPRP, the “shrunken log2 fold change” value was -0.291.

RRIRVRPPRLPRPRPRPPLVPRP was tested, and the “shrunken log2 fold change” value was 0.227.

For RRIRDRPPRLPRPRPRPDQNPRP, the “shrunken log2 fold change” value was -0.0888.

In the case of RRIRFRPPRLPRPRPRPKWWPRP, the “shrunken log2 fold change” value is reported as -0.0582.

In the case of RRIRFRPPRLPRPRPRPDRMPRP, the “shrunken log2 fold change” value is reported as -0.00758.

With RRIRPRPPRLPRPRPRPGYHPRP the “shrunken log2 fold change” value was -0.506.

For RRIRARPPRLPRPRPRPGWDPRP, the “shrunken log2 fold change” value was 0.811.

RRIRPRPPRLPRPRPRPFNQPRP was tested, and the “shrunken log2 fold change” value was -0.695.

In the case of RRIRPRPPRLPRPRPRPIIWPRP, the “shrunken log2 fold change” value is reported as -0.0266.

For RRIRFRPPRLPRPRPRPYIHPRP, the “shrunken log2 fold change” value was -0.932.

With RRIRNRPPRLPRPRPRPPNNPRP the “shrunken log2 fold change” value was -0.598.

RRIRMRPPRLPRPRPRPWISPRP was tested, and the “shrunken log2 fold change” value was 0.00707.

In the case of RRIRPRPPRLPRPRPRPLPQPRP, the “shrunken log2 fold change” value is reported as 0.286.

In the case of RRIRVRPPRLPRPRPRPHCFPRP, the “shrunken log2 fold change” value is reported as -0.147.

With RRIRPRPPRLPRPRPRPQMHPRP the “shrunken log2 fold change” value was 0.143.

In the case of RRIRMRPPRLPRPRPRPKGPPRP, the “shrunken log2 fold change” value is reported as 0.716.

With RRIRTRPPRLPRPRPRPHWVPRP the “shrunken log2 fold change” value was 0.381.

In the case of RRIRMRPPRLPRPRPRPLGAPRP, the “shrunken log2 fold change” value is reported as 1.25.

For RRIRVRPPRLPRPRPRPYTIPRP, the “shrunken log2 fold change” value was -0.736.

For RRIRHRPPRLPRPRPRPPAWPRP, the “shrunken log2 fold change” value was 0.0414.

With RRIRFRPPRLPRPRPRPWGGPRP the “shrunken log2 fold change” value was 0.162.

With RRIRLRPPRLPRPRPRPDKAPRP the “shrunken log2 fold change” value was 0.0248.

For RRIRCRPPRLPRPRPRPGKWPRP, the “shrunken log2 fold change” value was 0.107.

In the case of RRIRLRPPRLPRPRPRPVMCPRP, the “shrunken log2 fold change” value is reported as 0.142.

For RRIRNRPPRLPRPRPRPDDDPRP, the “shrunken log2 fold change” value was -0.153.

For RRIRPRPPRLPRPRPRPGYIPRP, the “shrunken log2 fold change” value was -0.553.

For RRIRTRPPRLPRPRPRPDCVPRP, the “shrunken log2 fold change” value was -0.128.

For RRIRLRPPRLPRPRPRPFFAPRP, the “shrunken log2 fold change” value was 0.169.

In the case of RRIRDRPPRLPRPRPRPGFGPRP, the “shrunken log2 fold change” value is reported as 0.264.

For RRIRCRPPRLPRPRPRPDYLPRP, the “shrunken log2 fold change” value was 0.0148.

RRIRPRPPRLPRPRPRPRGAPRP was tested, and the “shrunken log2 fold change” value was 0.495.

With RRIRARPPRLPRPRPRPKLEPRP the “shrunken log2 fold change” value was 0.623.

In the case of RRIRFRPPRLPRPRPRPWDYPRP, the “shrunken log2 fold change” value is reported as -0.387.

In the case of RRIRIRPPRLPRPRPRPCKTPRP, the “shrunken log2 fold change” value is reported as -0.168.

With RRIRYRPPRLPRPRPRPILTPRP the “shrunken log2 fold change” value was -1.08.

In the case of RRIRQRPPRLPRPRPRPWNDPRP, the “shrunken log2 fold change” value is reported as -0.373.

With RRIRSRPPRLPRPRPRPMLDPRP the “shrunken log2 fold change” value was -0.291.

With RRIRPRPPRLPRPRPRPITNPRP the “shrunken log2 fold change” value was -0.471.

RRIRERPPRLPRPRPRPHFWPRP was tested, and the “shrunken log2 fold change” value was 0.16.

RRIRTRPPRLPRPRPRPRGSPRP was tested, and the “shrunken log2 fold change” value was 0.177.

In the case of RRIRERPPRLPRPRPRPHMGPRP, the “shrunken log2 fold change” value is reported as -0.00822.

RRIRIRPPRLPRPRPRPYTGPRP was tested, and the “shrunken log2 fold change” value was -0.177.

In the case of RRIRWRPPRLPRPRPRPNIMPRP, the “shrunken log2 fold change” value is reported as -0.296.

With RRIRGRPPRLPRPRPRPMDYPRP the “shrunken log2 fold change” value was 0.0324.

In the case of RRIRERPPRLPRPRPRPVAFPRP, the “shrunken log2 fold change” value is reported as -0.0756.

With RRIRCRPPRLPRPRPRPNLMPRP the “shrunken log2 fold change” value was -0.323.

In the case of RRIRWRPPRLPRPRPRPTIKPRP, the “shrunken log2 fold change” value is reported as -0.125.

RRIRARPPRLPRPRPRPMRGPRP was tested, and the “shrunken log2 fold change” value was 1.56.

With RRIRIRPPRLPRPRPRPYMRPRP the “shrunken log2 fold change” value was 0.0163.

For RRIRERPPRLPRPRPRPLFKPRP, the “shrunken log2 fold change” value was -0.543.

RRIRVRPPRLPRPRPRPACEPRP was tested, and the “shrunken log2 fold change” value was 0.165.

With RRIRKRPPRLPRPRPRPNSCPRP the “shrunken log2 fold change” value was 0.188.

In the case of RRIRCRPPRLPRPRPRPYYVPRP, the “shrunken log2 fold change” value is reported as -0.519.

In the case of RRIRLRPPRLPRPRPRPETGPRP, the “shrunken log2 fold change” value is reported as -0.0316.

With RRIRDRPPRLPRPRPRPMGIPRP the “shrunken log2 fold change” value was 0.0303.

With RRIRCRPPRLPRPRPRPVGDPRP the “shrunken log2 fold change” value was 0.551.

RRIRRRPPRLPRPRPRPWTCPRP was tested, and the “shrunken log2 fold change” value was 0.0743.

With RRIRLRPPRLPRPRPRPVSRPRP the “shrunken log2 fold change” value was 0.0317.

RRIRNRPPRLPRPRPRPVGRPRP was tested, and the “shrunken log2 fold change” value was 0.118.

With RRIRRRPPRLPRPRPRPYMDPRP the “shrunken log2 fold change” value was -0.138.

In the case of RRIRYRPPRLPRPRPRPPMEPRP, the “shrunken log2 fold change” value is reported as 0.0358.

RRIRMRPPRLPRPRPRPKHFPRP was tested, and the “shrunken log2 fold change” value was 0.176.

With RRIRIRPPRLPRPRPRPDHKPRP the “shrunken log2 fold change” value was -0.413.

With RRIRDRPPRLPRPRPRPGILPRP the “shrunken log2 fold change” value was -0.197.

With RRIRMRPPRLPRPRPRPCSIPRP the “shrunken log2 fold change” value was -0.0306.

For RRIRPRPPRLPRPRPRPREHPRP, the “shrunken log2 fold change” value was 0.121.

In the case of RRIRQRPPRLPRPRPRPTYRPRP, the “shrunken log2 fold change” value is reported as 0.06.

In the case of RRIRHRPPRLPRPRPRPLHRPRP, the “shrunken log2 fold change” value is reported as -0.158.

For RRIRCRPPRLPRPRPRPHCSPRP, the “shrunken log2 fold change” value was -0.769.
